Results on one substance are retold here after patent KR20240010698A.

Experiment [1] deals with FITC-labelled recombinant human HER2 (human) (UniProt P04626). The experiment in a line: flow cytometry, CDV on aldehyde/sulfate latex beads, FITC-HER2 titrated.
The target is the same in experiment [2]. The experiment in a line: nanoparticle flow cytometry of CDV incubated with FITC-HER2.

On to “scTTZ-gLAMP1 (trastuzumab scFv fused to glycosylated LAMP1) on cell-derived vesicles”, for which, in experiment [1], the concentration for a half-maximal effect (EC50) was determined as 0.94 µg/mL. For the same substance, the percent of CDV with FITC fluorescence in experiment [2] was determined as 44.5%.
